Test results reported in the DeepSol protein solubility set.

Assay: soluble on expression in E. coli; label from the status in PepcDB or PDB records

## MSDEVPEILLAHYLKTLKLPTFQREYQKLARLCATEGVDHVEYLLRLSEREMIERDRRKVERRIKAARFPVVKSLDSFDFAAIPKLNKMQVLELARCEWIERRENVIALGPSGTGKTHVALGLGLAACQKGLSVGFTTAAALVSEMMEARDERRLLRFQKQMAAYQLLIIDELGFVPLSKTGAELLFELISQRYERGATLITSNLPFDEWTETLGSERLTGALLDRITHHVNILEMNGDSYRLAQSRARKAGAAALEHHHHHH
  soluble on expression in E. coli: soluble

## MGSDKIHHHHHHCDSGSDAVSYGVGTLSLGLSANPSFSTKTRSVNEAEYKKADNYQVTVKDADGASLYNGLYKDMPLSIDLTAGKGYTVKAFYGENVNAGFDKLYVEGSQEFTVSEGEQKNVILYCKPANVKVSVVYTEDFLKYYSDCTVSLSTSHLTAPFEVNMKKDSGKDAYLKANADGEKVSITVGGFRDKEGNEVVMEALVAEKKVAPKTHLTITVDPEVITISTGTASLDVTVDTGTEDKDVNIEIPEEYWPGNASK
  soluble on expression in E. coli: not soluble

## MGSDKIHHHHHHMAFNLDALASVVVDDSIKGIPFGARLGIADIANQGWNVLAGDLPLPAAIIRADALAHNSRWMQRFVSERGALIAPHVKTTMCPQIIARQIADGAWGVTVATVQQMRVCRNFGADRIILANQAVGRSELDAITAMVKEPDLDFMMIVDSAVGIEAAAEAVRRNRLDRPLQLLLERGYPGGRTGCRTNDIALALARQIRATPELRLVGIEAFEGLIQTENGSPEQAVGLFMDEIAALFGLCADDGLFESDAPLVTAGGSSHYDIVIDRLAHCTARVVTRSGCYVTHDSGLYRIAHQRLQAKIGEQDGLRRALEIWTYVQSIPEPGLALLTAGRRDCGTDSGFPVPLLLSSAGAYPRDLPPGCEVINLNDQHAYMRFPPDLPLAVGDRVGLGISHPCTTFDKWQIIYLVDSDYRVIEAMKTFF
  soluble on expression in E. coli: not soluble

## MGHHHHHHSHMDELVHDLASALEQTSEQNKLGELWEEMALSPRQQRRQLRKRRGRKRRSDFTHLAEHTCCYSEASESSLDEATKDCREVAPVTNFSDSDDTMVAKRHPALNAIVKSKQHSWHESDSFTENAPCRPLRRRRKVKRVTSEVAASLQQKLKVSDWSYERGCRFKSAKKQRLSRWKENTPWTSSGHGLCESAENRTFLSKTGRKERMECETDEQKQGSDENMSEW
  soluble on expression in E. coli: not soluble

## RQGCEARRAHEHLIRLLLEQGKCPEDGWDESTLELFLHELAVMDSNNFLGNCGVGEREGRVASALVARRHYRFIHGIGRSGDISAVQPKAAGSSLLNKITNSLVLNVIKLAGVHSVASCFVVPMATGMSLTLCFLTLRHKRPKAKYIIWPRIDQKSCFKSMVTAGFEPVVIENVLEGDELRTDLKAVEAKIQELGPEHILCLHSTTACFAPRVPDRLEELAVICANYDIPHVVNNAYGLQSSKCMHLIQQGARVGRIDAFVQSLDKNFMVPVGGAIIAGFNEPFIQDISKMYPGRASASPSLDVLITLLSLGCSGYRKLLKERKEMFVYLSTQLKKLAEAHNERLLQTPHNPISLAMTLKTIDGHHDKAVTQLGSMLFTRQVSGARAVPLGNVQTVSGHTFRGFMSHADNYPCAYLNAAAAIGMKMQDVDLFIKRLDKCLNIVRKEQTRA
  soluble on expression in E. coli: soluble

## AHHHHHHMVHITLDRNTANSWLIISKDRRQVRMGDTHQNVSDNKERFSNYPMVLGAQRFSSGKMYWEVDVTQKEAWDLGVCRDSVQRKGQFSLSPENGFWTIWLWQDSYEAGTSPQTTLHIQVPPCQIGIFVDYEAGVVSFYNITDHGSLIYTFSECVFAGPLRPFFNVGFNYSGGNAAPLKLCPLKM
  soluble on expression in E. coli: soluble

## MNDVSKASLPKAIFLMGPTASGKTALAIELRKVLPVELISVDSALIYRGMDIGTAKPNADELKAAPHRLLDIRDPSQAYSAADFRRDALAQMAEITAAGRIPLLVGGTMLYFKALLEGLSPLPSADPEVRSRIEQQAAELGWEALHQQLQEIDPVAAARIHPNDPQRLSRALEVFFISGKTLTELTQTSGDALPYQVHQFAIAPASRELLHQRIELRFHQMLASGFEAEVRALFARGDLHTDLPSIRCVGYRQMWSYIEGEISYDEMVYRGVCATRQLAKRQMTWLRGWEGVRWLDSENPDRARKEVLQVVGAIADMAGDPLEHHHHHH
  soluble on expression in E. coli: not soluble

## GMEMTKVTGKFDVKLTPENAYATGVGGVNLGRMALDKTFYGELEARSQGEMLSAMTAVKGSAGYVAIEQVVGKLCGRQGSFVLQHFGIMTDGQNRLHLEVVPHSGAGELTGLYGTMAISIENGQHFYEFSFCFEPASEVEG
  soluble on expression in E. coli: soluble

## MGKTKPVLQCTLCGALVDSGNGLPMHEETYAVLRVEAMPRQWRQALENVMAKTIASPPPSAMPGTDPLEAVWFTPWRTNSWQPNTVDCRQVLNGTLDELRVLSQEVAALAATQGFSACVEFV
  soluble on expression in E. coli: not soluble

## PKRSDARLPQVAAFSYVEDLLQAGVHVHLYTNGFLHSKLIMVDSQVASIGSTNMDFRSLENNFEFNGIIYDEPTVHRLEAIFFEDLLQSEPLDLKRWRKRSRIKKFSESFVRLFSPLL
  soluble on expression in E. coli: not soluble

## MGGSHHHHHHGMASGSAGLSRLHGLFAVYKPPGLKWKHLRDTVELQLLKGLNARKPPAPKQRVRFLLGPMEGSEEKELTLTATSVPSFINHPLVCGPAFAHLKVGVGHRLDAQASGVLVLGVGHGCRLLTDMYNAHLTKDYTVRGLLGKATDDFREDGRLVEKTTYDHVTREKLDRILAVIQGSHQKALVMYSNLDLKTQEAYEMAVRGLIRPMNKSPMLITGIRCLYFAPPEFLLEVQCMHETQKELRKLVHEIGLELKTTAVCTQVRRTRDGFFTLDSALLRTQWDLTNIQDAIRAATPQVAAELEKSLSPGLDTKQLPSPGWSWDSQGPSSTLGLERGAGQ
  soluble on expression in E. coli: not soluble

## MSLNDLLVGLLLPEKENTRYEQFDYPFFKKKVGELTRDEGIVKYANAEASATKQADQMQQMIEDKVDVIVLDAVDAHAIADGVQKAKDAGIPVIAYDRLAEGPIDAYISFDNELVGEVQGRSLIEALGGDPESSAKIVMMNGSSTDPNAKQFKAGALSELNGKVTIAQSFDTKDWKPENAEANMTEAIEKIGKKKIAGVYSANDGMAGGVIKALEDAGVTDLPPITGQDAELAAVQRIVTGEQYMSVYKSYPQEAENAAEMAVARVQGRDIQFDALARDKVDSPTHKGIPAQLVPVVALTKANIEETVVAEGHHHHHH
  soluble on expression in E. coli: soluble

## SDTMKVETIGKEIIKPSATTPTDLSTLQLSIMDILMPPVYAVAFLFYTKDDLISQEQTSHTLKTSLSEILTKFHPLAGRVNGVTIKSTDEGAVFVEARVDNCDLSGFLRSPDTESLKQLLPVDDEPAPTWPLLLVKATYFRCGGMAIGLCISHRLADAASLSIFLQAWAATARGESDLVASPDFCSTKLYPAANEAIKIPGEVVNRTSVTKRFVFVASKIEELRNKVASDVVPRPTRVQSVTSLIWKCVVTASTDTIREKALFQPANLRTKIPSLLSENQIGNLLFNSLILDGKAGMDIVETVKELQKRAEDLSGLVQDEEGSSMTIGWRLFGEIINSKFNREDHDMHSVTSWCKIPLYDACFGWGSPVWVAGSVSPNLDYVTVLIDSKDGQGIEAWVTLPQENMLLLEQSTELLAFASPNPSVLI
  soluble on expression in E. coli: soluble

## MGHHHHHHSHMHGWTWSVPKFMKRMKVPDYKDKAVFGVPLIVHVQRTGQPLPQSIQQALRYLRSNCLDQVGLFRKSGVKSRIHALRQMNENFPENVNYEDQSAYDVADMVKQFFRDLPEPLFTNKLSETFLHIYQYVSKEQRLQAVQAAILLLADENREVLQTLLCFLNDVVNLVEENQMTPMNLAVCLAPSLFHLNLL
  soluble on expression in E. coli: not soluble

## MSLKLTRLSLWHIPLTSHETYYMAGGKTCDTTMTTLIRLDTDSGLSGWGEVCPIPHYLPAYADGVAPALTELAPIILGADPLGAEALMERCNAYLLGHDYAKSALDIALWDITARAAGLPLHALLGGRAMADMPLYHSITCVAPDEMARIARDAQAQGMTQFQVKLGADGDWQADVARLSHVREAVGPGPLVYGDWNCGSDSLTASRVGRAVAHLDVMLEQPCRTIQECAAVRDATGLPMKLDETAHDIPSLLDGHRRGCMDAVALKLSKFGGLSATRRARDLCLALGTRMCIEDTWGSDVTTAALLHLAAATPARGLMNTCDLSHYVGPRLAPDGPTRHMGRIAPPEGPGLGITPDMDVLGTPQLILDEGHHHHHH
  soluble on expression in E. coli: soluble

## MTNNNQIGENKEQTIFDHKGNVIKTEDREIQIISKFEEPLIVVLGNVLSDEECDELIELSKSKLARSKVGSSRDVNDIRTSSGAFLDDNELTAKIEKRISSIMNVPASHGEGLHILNYEVDQQYKAHYDYFAEHSRSAANNRISTLVMYLNDVEEGGETFFPKLNLSVHPRKGMAVYFEYFYQDQSLNELTLHGGAPVTKGEKWIATQWVRRGTYK
  soluble on expression in E. coli: soluble

## MSLSASRAIKERDSRSHIKVLFPSMPYVYVSRLINEGLVRLAENDQGWEYSLATDCPKLSPTLYECTLRQGVRFQDGTPFNADSVIKNFDYFLAQPFNYTDIHRSLKAVEKVSPYKIRLILSQPYGMLFRDLARIFFYSDAYLRQYGWGGAETGANIKSAGSYGLGPYILVEGMITGRKQTPKAILKANPYYWEKGFPKIETITVFTELETQSALESLLEREGELDFMPIPFNKKIETLLSPYTKLIITPSTNNFTIYFNLHKHDSKVFDPKVRQALNCALNQENLLNFTYKKEGRPNTGAYTHEDCPFSLRELHEILRGLKFKVATQDSLLFLWRGIEYQLSRYGVELEFLLTTSEKEIYDLAQKNHQQTQEWDMLIQGTQDWYGRHPWPIFIRYQEGNPWSFVTGDIKMREAINQLFRHEQGTPEFEALCQTIIQRAKEKAYMLFIPTPHAVYGMNKELHFTPHGIGLQPLWKAEVTSEHWSLRGDKPYPESLQKPILPQREGHHHHHH
  soluble on expression in E. coli: not soluble

## MNNGKLFLVGTPIGNLKDITLRALETLQNCDVIAAEDTRQSLKLLNHFDIKKPLISYHKFNENNRSSELMDMVREGKKVALVTDAGMPGISDPGSVIVEKFIENNLEFEVIPG
  soluble on expression in E. coli: not soluble

## MIQARSRRPLSCSLRSSSQNPIATTFLTGGKMDRIVRQILVKLLGGERSVYELIYYQDASLREFFELLNSLRDEGLIEVESGKVRITEKGREVAEKERLKFCGDVECECCEGTGLSINPYFKEILQKYSEIAKDRPETIEVYDQGFISLEGVIRRVEFVYDRGDLNGRIFVVGDDDLFGIAASLTGMPEKVAVVDIDERLINFINRVAEEYSLNVEAFVYDVQQAFPDELKRKFDVFVTDPVETIPGLKLFLSRGVSTLKGVGGAGYFGITTLEASRRKWYEIQRMIHDMGFIITDLRRRFNVYPEDEKNFFRFQEKLPIVRHLQAKVDFNWYNSTLFRIEAVKEPKPIVEGEMIIDEKVYKDDESWATPY
  soluble on expression in E. coli: not soluble

## MTPFKELQKFIHWKERFLRDYEKIEKGELEKIREEVKEMLGEEPDERLLKALRSMYVGGMEHRVEDEEIRYWTNWGGVKTYETFNRFPLLSDIELAFVFWALGKLFVPLLMHETGVKSEPFKKLSREEQEEAVLDELDTLWETQLTLILQALQFLDLKSISSEKPSSEG
  soluble on expression in E. coli: not soluble

## MARKRRAARVKDKWTLKKWFTLIAPEYFGMAELGETPADDASKVVGRTVETTLAELTNDYSNQNTYKKLIFKVYRVAGDNAYTKFWRFELTREYLNSLTRRRTSKIEDIVDVTTADGYKLRVKSVVFTVRRCKTSQKRAIRAIMRQIVVEKASSLNFVQFLQECVLGKVPAEIYKNAKKIYPIRRVEIRKIELLAEPAEAETQPAVAEAVALEHHHHHH
  soluble on expression in E. coli: soluble

## MSLSIKMRLGKEFLIDDLKRIEAMRNHLADNIMLMADANEAWRIDQAVIAFKEIEKFNLVWLEEPIKPDDFKGYSYLRSLGKIPIAAGENLHNLAEFNQLIDVNGVDFLEPDLTTCGGITPFMKVAKLAEVNNLPVCSHGVHELHVHLLASCPNASYLEFHAWRIDEFIDSPLKVLNGYTEAPDLPGHGINFDFEKVEKYNVGEGHHHHHH
  soluble on expression in E. coli: not soluble
